Test results taken from the DeepSol protein solubility set.

Experiment: soluble on expression in E. coli; label from the status in PepcDB or PDB records

Sequence	soluble on expression in E. coli
MHKAILNSDLIATKAGDVTVYNYDGETREYISTSNEYLAVGVGIPACSCLDAPGTHKAGYAICRSADFNSWEYVPDHRGETVYSTKTGESKEIKAPGDYPENTTTIAPLSPYDKWDGEKWVTDTEAQHSAAVDAAEAQRQSLIDAAMASISLIQLKLQAGRKLTQAETTRLNAVLDYIDAVTATDTSTAPDVIWPELPEA	not soluble
MGSDKIHHHHHHMTTDYRLTSDADREAFYQLYQYAFNNHDTPARRRFFMDRYQHGWIYGRHDHGQLVSGLYSLPLAVNFHGVTYRMNGIGDVMSAPEYAGQGGAGQLLTTALTEMAANHVTLSYLAPFAYGYYRRFGYEHVFNHAHQVMAAPDLPRVKPTDWSGTITRYGNDGLAQINDFYARQPQNQCGGLIRPAWWQHYLTLKHHWSVAIYRNAAANIEGYLIYERQATNFAIQEWVTSTPTAFERLANFITKHGTTFETFSYDSPSATNGLDLLADPYRLKVTVQPYMMARIVDLYDFIKRYPFLTDIQPIRLAVSDATLPANQGIWSLTRHNGQVTLNRVSDQLTGPADIQLTIQQLTTACFGTQSLARAYQHGLITGDVNAINRLDTSLVKERPALIDYF	not soluble
MKCIETPKSAEEWRKVERTFAKKHILRCLGSLDGKHIRIKAPPHSGSLFFNYKHFFSFVLLVVVDADGRVIWVDVGSPGSNNDASIFSDSKLKTILDEEANLPPPTFWSRDFVVKPFVIADGIFKITPRMMTLYGGNGLNISQKVLNKKLSRARVKAEHAFGRLSAKFRILRREMECPYEKSVDIILALCHLHNYLIGKAEDVVNVPIETNMIPYKDGKEQRDYLCRYLNN	not soluble
MSNQDYTGVRVEGARKLRSTLKKAGIDVRDDMKQAHKDAASIVSRRAAQITPVGPGSRRHKPGQLKASVRPAGTQTAAIVRAGKKRVPYAGPIQWGWHKRKIKPTFFLTRAASDTEPAWLKGYEKKFNQILDSIEGK	not soluble
AGDIAIIGLAGRYPKAANIHEFWNNLKEGKDCVSEIPESRWDWQRLEGITSPSGKDISKWGGFIDDPDCFDPQFFRITPREAETMDPQERLFLETCWETIEDAGYTPKTLAKPKGRNKRQHVGVFAGVMHKDYTLVGAEEASAENVFPLSLNYAQIANRVSYFCNFHGPSMAVDTVCSSSLTAVHLALESIRHGECDVALAGGVNLSLHPNKYMTYGVWDMFSTDGHCRTFGKDGDGYVPAEGIGAVLLKPLRQAEEDGDRIYAVIKGSAVNHVGTVSGISVPSPVSQADLIETCLEKTGIDPRTISYVEAHGTGTSLGDPIEIQGLVKAFRQYTQDRQFCSIGSVKSNIGHAESAAGISGLSKVALQLHHQKLVPSLHSEELNPYVDFEKSPFYVQHETETWKQPVIKENGEDVPYPRRAGISSFGATGSNAHIILEEH	soluble
MIGRLRGIIIEKQPPLVLIEVGGVGYEVHMPMTCFYELPEAGQEAIVFTHFVVREDAQLLYGFNNKQERTLFKELIKTNGVGPKLALAILSGMSAQQFVNAVEREEVGALVKLPGIGKKTAERLIVEMKDRFKGLHGDLFTPAADLVLTSPASPATDDAEQEAVAALVALGYKPQEASRMVSKIARPDASSETLIREALRAAL	soluble
MGSDKIHHHHHHMQTFPAYSSMQLSLSPTQCQPLKIIALGDSLVYGFGDPDKGGWVEQLRRWWMLPDSSGHVLYNLGVRGDRTQQVAQRLEVEFRHRGELRNRVPDLIILSVGVNDSARLTRLNGRNCTDFALFESEIASLLDQAQQLCPVLFVGMVPVDEAKMPFLNCFYFNHADQYRYKEATRIACNQRQIPYLDIFDQWMARGDAWRNKRLTEDGLHPNTLGYQSLLEDVIHWEHLAGYHTRPDYQLK	not soluble
MVHTADNAWRAHIPLMYREDFLCSSGVARWNEEFPRHCVVSQHDRHKTKSVLVILFLIAMRNIKNNRGTFTRIKDRLSSALKSPASLFRRSPEISLREDILSWKKSPHSLAASEYGGSDLLVQFLKQQTSDDYVDFWLESGEYRWTRTKPGRKRDIEAQRIYDKFVYGECPRKIAHLEKMCFVSRQGPTGRDVFICAQAYVGTNFPKDSYKKFLQDPIYLNLLKTVSSGATQLNE	not soluble
MTNVLILGAAGQIARLAEQQFLANTTDNLTLYLRNSSRVADQQSDRVTIIDGDTTDEAKLTQAMTGQDVVYANLAGQNIKQQAETVLKAMHTSGLKRLIWISTLGIYDEVPGKFGQWNNATLGSYLTRYYAAAEVLENSDLDYTIIRPAWLTNKDEIDYEITQRHDPFKGTEVSRKSIAALVVKLTQDPTSNIRTSLGVNKPNTDGDKPAWY	not soluble
MGSDKIHHHHHHMRNILIALCLSLTALNSHAADQIERMAADKMQSYKESKINWKDDPILPKGAKSALILGDPSKPGVFIAWLKFPANYPIPAHTHPFTEVITVLKGKLGNGMGEVLDKKKGETLNVGESFVLPAGHAHYVWTGNEETIIELIATGPWDITYSNPKDDPRTK	not soluble
MDESAALRAFQDALRTQRPEFGQFFLARLLGLDISYPDGQCLIVFEPQDFLFNPQGSLHGGIIATVMDISMGHLLNHVQGAGLTLEMKTQYLKAVHQGTVYCRGEFLQRGRSVSFLKSTLTDAQGEPLAMATSTWKALSPLEHHHHHH	soluble
MKLNFNPVTKEEIHQLETALLVGTLFRKEVLEEIRNSAERLTWVDSLAVAAGALARAKAGMTASEIAEELGRTEATIREHVKGETKAGKLVNETYELLKEGKLSVEGLIGEGIKVVTTTTGSDEKLQEVKKELEEIKQKLESVIQKL	soluble
MINKTKEKLILIGMPGSGKTTIGKLLAKEYNCSFCDMDDYIIQISQKSIAELFSEGEDIFRNYETQACRELSISDKTVISTGGGVIKKDVNMEILKETGIIIFIDRPIQKILEDININSRPLLKNGKDRLYNLYNERINLYKKFSDIEILNDKSLNNAVYNITNAVSENFKFDFKEK	not soluble
MANDDLQQRLDKGMYGTPLVNPEEQHKYMGTFRERCRLSMTVAEMKDAQNQKHLLEELAKHPEVTVLLNGEISSDLQSTYIKLLNQHGANFKIVNNFVENNPDSLGLLLAEKHAVDEPVIDVTEKYPQATETPKEEPTAKKSFWQKLFHS	not soluble
AARRKIAKDLGKQVTQAMQTLSMQGGRFEAALTGGAPSAHGSEQVEFLVAGHAGSTPRPLAKVASGGELSRISLALSVIASRAARVPTLIFDEVDSGVGGAVAEAVGKLLRELGQRHQVLCVTHLPQVAACAHAQYRVSKVESGGSTRSRIAELDAEARVEEVARMLGGIKITATTRDHAREMLGGHTAPAA	not soluble
MAQTAFHVEFNKAPEDQATKTHNRWHPDIPMVEWFNPGDEFRVECYDWTGGQISNDDSANDVRDVDLTRVHYLSGPFGVKGAEPGDLLVVDLLDVGALPESAWGFTGIFARENGGGFLCEHFPDARKACWDFHGIYTTSRHVPNVRWPGIIHPGLIGCLPDRALLERANKREAALLATDPNRVPPLLAPSYADTALMGQMSGEAARKAGAEAWRTVPPREHGGNCDIKNLSRGSRVYFPVYVKGGGLSMGDIHWSQGDGEITFCGAIEMAGFLDIRVDLIKDGINKYGIVNPIFKPSPIEPHFAEYLVFEGISVDEHTGEQYYLDAHVAYRRACLNAIEYLKKFGYTSEQAYIILGTAPVEGRISGIVDIPNACCTLAIPTEIFDFDIRPNAAGPSAKVGKAKVAVTSLEHHHHHH	not soluble
MDDRLFRNAMGKFATGVTVITTELNGAVHGMTANAFMSVSLNPKLVLVSIGEKAKMLEKIQQSKKYAVNILSQDQKVLSMNFAGQLEKPVDVQFEELGGLPVIKDALAQISCQVVNEVQAGDHTLFIGEVTDIKITEQDPLLFFSGKYHQLAQNEKVETSS	soluble
SLIYFFMVDAVELSRKYEGKIEIYPKVPITSYNDFALIYTPGVAEVSKAIYKDPDKSFELTSRWNTIAVVTDGTRVLGLGNIGPTAAMPVMEGKSLLFKYLGGVDAIPLPINVKSADEFTNVVKALETSFGGINLEDIESPKCFYILEKLQSMLNIPVWHDDQQGTAAAILAGLINAMILTNKDPKESKVVFYGAGASNIAAARILAKYGFKYENIVMIDSKGPLYADREDVDHLMLHHKWKYELAIKTNKWEAKEIKDAFSGADAVVAASTPGPNVIKKEWISLMNKEAIVFALANPVPEIWPQDAKEAGAKIVATGRSDFPNQVNNSLIFPAIFRGVLDSRAKAITDEMTIAASEALAKYARDRGINENYIIPRMDEWEAFYEEAAAVASKAVELGLARVKKSREEFREIAKERIIRARKIMNLVISTWSPEG	soluble
MGERKGQNFYYPPDFNYKTHKSLNGYHGTHALRERAKKIDQGILVIRFEMPFNIWCLGCHNHVGMGVRYNAEKKKIGMYYTTPLHEFRMKCHLCDNYYVIRTDPKNFDYELVEGCSRQELRFDPTDIAQIGAVDRGFTQKLAADAMFKKEHEAEDKDKAATEEGRVDKLEWIQERMRDDFTANSFLRAQFRNEKKSLNETRARDANLRDKLSIGTTQLLPETEEDRRIASMMTRYRDTKTHDDHLESSRDRIESRRIFRRPEETDTPSTSSGSSGGAVPSASERLKATMKAERDKRINASFSTAGTSSATQKLLGIKRKSASSLGVQIKKAAPENSSLQDEEPAVEKPNISNPISLIAQEYGNSSDDSD	not soluble
MAHHHHHHMYLLQCEKKKKQKGKGQIGLTQVEYIGKPLIGGDFTLINHDGKVVTNEDFKKKFCLIYFGFTYCPDICPQELEKQTIVIERIVKKYGDVITPVFISVDPNRDTLAQVKHYCSSFSDRLVGLTGTKEQIRRVAKLFRVYYNEHVVGEEQTEEQTEKQKERQTDTQTEAQSGDPPRAPSYNYLIDHSIIHYLLDADGKFVDFFGKNCTTSEMVERISHYVDLHLQ	not soluble
MAHHHHHHMDSASGDGGDGAPASAERHSLKPLRWIEEVRDASQPNAVFLNVYDVRGSSTLLYSVGWGVHHVGVQVYGKEYQYGHRPIGKGIGSVKPHQSPPHTYREQFFLGQTQLSASEVEKLVVAFSDKVEWLGSNYHLVKHNCIDFARAFCEALLPPAVRVEQARRAEEAGLSQKMHMVEVEVDGMRHSVPVLIPHHVDRLARYAAHYLPKSSMQRFDRLESSFFSMSEVPQERGQPTAADPDTNRSTTPTPQPHTRTSH	not soluble
MGSDKIHHHHHHMSDSEKSNSRLFDLDLLRAIVTVADCGSFTTAAARLHSTQSTVSQKVRRLEEMAGHRLLERGNRDVLPTDAGDTLLGYARRLLALNDELAEALSGATVALTVRIGVPDDFAAGRTTERLAAFNRRYPQVKLEVTSGMSRDLSASYDRGELDLVLLKQRRASREALACWPEKTCWVDSARNPCIDLDPLPIVTFPPRGVYRDEMIAALEAVGRRWHISFTSSSLSGLQSAIADGMGIGLLPLRAVSAGHAVLPKNVGLPAVDVFEVALLHRPAADPMVKALARVLSRVLAEDTRSRPAFEK	not soluble
